# According to patent publication US11998613B2, “Antibody-drug conjugates containing an anti-mesothelin antibody and uses thereof” (DEVELOPMENT CENTER FOR BIOTECHNOLOGY, priority 2020, dated 2024):
# B1: DCBPR2002-4(DBCO-vc-MMAE): DCBPR2002-4Az reacted with DBCO-vc-MMAE; trimannosyl-conjugated ADC, DAR 3.89 (conjugate)
# VH: QVQLVQSGAEVKKPGASVKVSCKASGYSFTGYTMNWVRQAPGQGLEWMGLITPYNGASSYNQKFRGRVTMTRDTSISTAYMELSRLRSDDTAVYYCARGGYDGRGFDYWGQGTLVTVSS
# VL: EIVLTQSPATLSLSPGERATLSCSASSSVSYMHWYQQKPGQAPRLLIYDTSKLASGIPARFSGSGSGTDFTLTISSLEPEDFAVYYCQQWSKHPLTFGQGTKVEIKR
# Legend:
# [1] = system: Pancreatic cancer cell line KLM-1 (MSLN+); assay: In vitro cytotoxicity, CellTiter-Glo luminescent cell viability assay, KLM-1; assay type: cell-based, human; conditions: KLM-1, 72 hours treatment; read-out: Relative IC50 (nM of toxic payload/ADCs)
# Description: (§1) Pancreatic cancer cell line KLM-1 was respectively grown in RPMI 1640 Medium (ATCC modification) medium supplemented with 10% fetal bovine serum. Ovarian carcinoma cell line OVCAR-3 was grown in RPMI 1640 Medium (ATCC modification) medium supplemented with 20% fetal bovine serum. The KLM-1 & OVCAR-3 cell lines were maintained in an atmosphere of 5% CO2 in a humidified 37° C. incubator. The day before treatment, cells were collected and seeded into 96-well plates (4,000 cells per well). On the second day, cells were treated with 3-fold serial dilution concentration of toxic payloads and ADCs. Each treatment was performed in eight triplicate data points. After the treatment of 72 hours, cell viability was assessed by CellTiter-Glo® kit (Promega) according to the manufacturer's instruction. At the end of the incubation, luminescence was measured using a SpectraMax i3x Multi Mode Detection Platform (Molecular Devices). Compound cytotoxicity was evaluated in comparison to cells treated with 0.05% PBS (ADCs) or 0.05% DMSO (toxic payload). IC50 values were calculated by fitting viability data with a four-parameter logistic equation using GraphPad prism 5.0 software.
# [2] = system: KLM-1 human pancreatic cancer xenograft; assay: KLM-1 xenograft model (Example 44); assay type: in vivo; conditions: for tumor growth / anti-tumor activity: TGI≥58% considered significant
# Description: Each of the formulations was administered intravenously (IV) to the mice once weekly for three weeks.
# Five mice were housed in each cage.
# When the average tumor volume had reached 200 mm^3, the mice were randomLy divided into 4 groups (N=6 per group). Each of the vehicle, DCBPR2002-4(DBCO-vc-MMAE) (15 and 30 mg/kg), and naked antibody (DCBPR2002, 30 mg/kg) was intravenously administered once weekly for 3 weeks.
# Differences are considered significant at *P<0.05.
# [3] = In vivo PK in mice, MSD ECL total and conjugated antibody assays; parameters: species or system BALB/c mice; conditions: 3 mg/kg via the tail vein
# Description: The mice were administered at a dose level of 3 mg/kg via the tail vein. Blood samples were then obtained at different time points for determining the concentrations of DCBPR2002-4(DBCO-vc-MMAE) in mice by MESO QuickPlex SQ 120 method.
# [4] = system: KLM-1 human pancreatic cancer xenograft; assay: KLM-1 xenograft model (Example 45); conditions: 15 mg/kg IV once weekly for 3 weeks
# Description: Formulations respectively comprising test article DCBPR2002-4(DBCO-vc-MMAE)(15 mg/kg), test article DCBPR2002-4(DBCO-vc-seco-DUBA)(15 mg/kg), test article DCBPR2002-4(DBCO-s-DM1) (15 mg/kg), test article DCBPR2002-2(DBCO-vc-MMAE)-2(DBCO-vc-seco-DUBA) (15 mg/kg), test article DCBPR2002-2(DBCO-vc-MMAE)-2(DBCO-s-DM1) (15 mg/kg), test article DCBPR2002-2(DBCO-vc-seco-DUBA)-2(DBCO-s-DM1) (15 mg/kg), and a corresponding vehicle were formulated by diluting the stock with a 25 mM sodium citrate buffer (pH6.5). Each of the formulations was administered intravenously (IV) once weekly for three weeks.
# The KLM-1 cells were maintained in vitro as a monolayer culture in RPMI-1640 medium supplemented with 10% fetal bovine serum at 37° C. in an atmosphere of 5% CO2 in air. The tumor cells were routinely sub-cultured twice weekly by trypsin-EDTA treatment. The cells growing in an exponential growth phase were harvested and counted for tumor inoculation.
# Male NOD SCID mice at age of 6-7 weeks were purchased from BioLasco Taiwan Co., LTD. and quarantined for one week. Five mice were housed in each cage. All animals were hosted in the animal facility with a 12-h light/12-h dark cycle at 19-25° C. Animals had free access to rodent pellet foods and water ad libitum.
# KLM-1 cells were subcutaneously (SC) implanted (4×10^6 cells in 1:1 PBS/matrigel mixture at 0.1 mL per mouse) into the right flank of male NOD SCID mice. When the average tumor volume had reached 300 mm^3, the mice were randomly divided into 7 groups (N=6 per group). Each of the vehicle, DCBPR2002-4(DBCO-vc-MMAE), DCBPR2002-4(DBCO-vc-seco-DUBA), DCBPR2002-4(DBCO-s-DM1), DCBPR2002-2(DBCO-vc-MMAE)-2(DBCO-vc-seco-DUBA), DCBPR2002-2(DBCO-vc-MMAE)-2(DBCO-s-DM1), DCBPR2002-2(DBCO-vc-seco-DUBA)-2(DBCO-s-DM1) was intravenously administered as 15 mg/kg once weekly for 3 weeks.
# The tumor volumes, body weights, mortality, and signs of overt toxicity were monitored and recorded three times weekly for 28 days. Tumor volumes were measured three times per week using calipers and calculated according to the formula: Tumor Volume=(w2×l)/2, where w=width and l=length in diameter (mm) of the tumor. […] One-way ANOVA followed by Dunnett's test was applied for comparison between the vehicle and test article-treated groups. Differences are considered significant at *P<0.05. Animals were weighed three times weekly until the completion of the study.
# [5] = system: Ovarian carcinoma cell line OVCAR-3 (MSLN+); assay: In vitro cytotoxicity, CellTiter-Glo luminescent cell viability assay, OVCAR-3; assay type: cell-based, human; conditions: OVCAR-3, 72 hours treatment; read-out: Relative IC50 (nM of toxic payload/ADCs)
# Description: as §1, with “The” for “Pancreatic cancer cell line KLM-1 was respectively grown in RPMI 1640 Medium (ATCC modification) medium supplemented with 10% fetal bovine serum. Ovarian carcinoma cell line OVCAR-3 was grown in RPMI 1640 Medium (ATCC modification) medium supplemented with 20% fetal bovine serum. The”
# [6] = 15 mg/kg IV once weekly for 3 weeks
# [7] = 30 mg/kg IV once weekly for 3 weeks
molecule,measurement,setting,value
B1,IC50,[1],101 nM
same,body weight changes,[2]; [6],No body weight loss was observed
same,tumor growth / anti-tumor activity,[2]; [6],significantly reduced KLM-1 tumor growth from Day 7 to Day 28
same,body weight changes,[2]; [7],No body weight loss was observed
same,tumor growth / anti-tumor activity,[2]; [7],significantly reduced KLM-1 tumor growth from Day 7 to Day 28
same,AUC(0−last),[3]; Conjugated antibody,2264 ng·h/mL
same,C0,[3]; Conjugated antibody,275 ng/mL
same,MRT,[3]; Conjugated antibody,23.4 h
same,Vss,[3]; Conjugated antibody,0.155 L/kg
same,AUC(0−last),[3]; Total antibody,25963 ng·h/mL
same,C0,[3]; Total antibody,346 ng/mL
same,MRT,[3]; Total antibody,299 h
same,Vss,[3]; Total antibody,0.129 L/kg
same,t1/2,[3]; Total antibody,220 h
same,body weight changes,[4],No body weight loss was observed
same,ranking of efficacy potency,[4],DCBPR2002-4(DBCO-vc-seco-DUBA)=DCBPR2002-2(DBCO-vc-MMAE)-2(DBCO-vc-seco-DUBA)=DCBPR2002-2(DBCO-vc-seco-DUBA)-2(DBCO-s-DM1)>DCBPR2002-4(DBCO-vc-MMAE)>DCBPR2002-2(DBCO-vc-MMAE)-2(DBCO-s-DM1)>DCBPR2002-4(DBCO-s-DM1)
same,IC50,[5],1 nM
